Experimental data taken from patent US20220267464A1.

Target: human CEACAM5 (carcinoembryonic antigen, CEA) on cells (human) (UniProt P06731)
Assay: flow cytometry, MKN45 cells
Design: unit not given beside the values

human CEACAM5 (carcinoembryonic antigen, CEA) on cells (human), sequence (P06731 35-685 E398K limits assumed): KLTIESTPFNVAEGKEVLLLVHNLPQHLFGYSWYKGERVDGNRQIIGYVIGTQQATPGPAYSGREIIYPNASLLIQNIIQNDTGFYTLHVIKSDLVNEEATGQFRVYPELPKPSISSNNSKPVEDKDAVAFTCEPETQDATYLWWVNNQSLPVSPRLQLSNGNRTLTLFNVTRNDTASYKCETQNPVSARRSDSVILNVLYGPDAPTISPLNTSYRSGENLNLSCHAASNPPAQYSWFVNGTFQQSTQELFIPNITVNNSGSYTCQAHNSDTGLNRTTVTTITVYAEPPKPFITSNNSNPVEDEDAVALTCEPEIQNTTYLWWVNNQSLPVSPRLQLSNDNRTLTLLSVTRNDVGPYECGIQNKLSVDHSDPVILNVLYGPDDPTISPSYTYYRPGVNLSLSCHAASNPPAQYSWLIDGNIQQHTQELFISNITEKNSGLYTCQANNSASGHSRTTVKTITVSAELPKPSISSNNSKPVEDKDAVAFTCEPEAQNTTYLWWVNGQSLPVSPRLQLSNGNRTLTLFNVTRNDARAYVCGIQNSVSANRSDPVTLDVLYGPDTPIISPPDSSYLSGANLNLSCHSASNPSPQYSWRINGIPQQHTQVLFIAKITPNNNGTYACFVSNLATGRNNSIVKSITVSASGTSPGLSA

AUC: 3140
B1: P1AE3125 (antibody, IgG1, V domains shown)
VH: QVQLVQSGAEVKKPGASVKVSCKASGFNIKDSYMHWVRQAPGQGLEWMGWIDPENGDTEYAPKFQGRVTMTTDTSISTAYMELSRLRSDDTAVYYCNEGTPTGPYYFDYWGQGTLVTVSS
VL: DIQMTQSPSSLSASVGDRVTITCRASSSVSYMHWYQQKPGKAPKLLIYSTSNLASGVPSRFSGSGSGTDFTLTISSLQPEDFATYYCQQRSSYPLTFGGGTKLEIK
